Assay results taken from US20240181075A1 (EMERGENCE THERAPEUTICS, published 2024).

T1: Nectin-4 extracellular domain Fc fusion recombinant protein (Nec4-VCC) (human, UniProt Q96NY8 32-349)
T1 construct: extracellular domain; also called Nectin-4-VCC-Fc; not shown: Fc part
T1 sequence (looked up): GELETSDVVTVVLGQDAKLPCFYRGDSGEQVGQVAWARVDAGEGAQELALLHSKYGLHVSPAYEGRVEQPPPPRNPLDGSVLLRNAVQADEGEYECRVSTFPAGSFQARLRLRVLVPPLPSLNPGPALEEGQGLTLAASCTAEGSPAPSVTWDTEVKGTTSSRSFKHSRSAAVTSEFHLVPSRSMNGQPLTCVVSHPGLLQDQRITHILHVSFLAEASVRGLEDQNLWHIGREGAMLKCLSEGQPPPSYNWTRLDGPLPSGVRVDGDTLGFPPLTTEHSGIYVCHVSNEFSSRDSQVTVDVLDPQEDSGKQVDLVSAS

T2: Nectin-1 extracellular domain Fc fusion recombinant protein (Nec1-VCC) (UniProt Q15223 31-355, limits assumed)
T2 construct: extracellular domain; also called Nectin-1-VCC-Fc; not shown: Fc part
T2 sequence (looked up): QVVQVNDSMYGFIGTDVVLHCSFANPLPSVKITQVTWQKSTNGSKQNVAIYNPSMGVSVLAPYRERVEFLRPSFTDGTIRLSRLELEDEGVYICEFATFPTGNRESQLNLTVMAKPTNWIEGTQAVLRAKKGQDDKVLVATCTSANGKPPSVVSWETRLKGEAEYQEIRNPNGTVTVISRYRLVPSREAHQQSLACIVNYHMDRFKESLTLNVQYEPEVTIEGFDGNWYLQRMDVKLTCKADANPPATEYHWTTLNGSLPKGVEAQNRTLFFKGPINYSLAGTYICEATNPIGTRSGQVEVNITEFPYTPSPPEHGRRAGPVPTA

T3: human Nectin-4 with N-terminal Flag epitope tag, expressed on transfected MDA-MB231 cells (human, UniProt Q96NY8 32-510)
T3 construct: whole, on cells; also called PVRL4 cDNA in p3XFLR4.C1
T3 sequence (looked up): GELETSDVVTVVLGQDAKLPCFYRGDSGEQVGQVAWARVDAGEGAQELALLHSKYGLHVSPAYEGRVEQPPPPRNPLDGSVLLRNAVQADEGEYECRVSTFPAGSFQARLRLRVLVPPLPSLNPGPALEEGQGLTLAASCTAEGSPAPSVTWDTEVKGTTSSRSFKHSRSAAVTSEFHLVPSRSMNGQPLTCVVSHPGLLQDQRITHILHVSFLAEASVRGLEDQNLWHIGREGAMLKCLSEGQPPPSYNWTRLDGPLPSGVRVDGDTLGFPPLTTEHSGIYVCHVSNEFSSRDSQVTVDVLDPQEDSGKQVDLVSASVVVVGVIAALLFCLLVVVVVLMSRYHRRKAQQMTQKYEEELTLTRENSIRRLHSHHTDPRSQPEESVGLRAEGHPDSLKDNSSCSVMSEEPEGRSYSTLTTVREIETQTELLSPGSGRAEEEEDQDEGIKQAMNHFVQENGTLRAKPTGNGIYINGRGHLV

T4: human Nectin-4 on cells (CHO cells transfected with human Nectin-4 cDNA); SUM190 tumor cells; normal … (human, UniProt Q96NY8 32-510)
T4 construct: whole, on cells; The cell type that carried it is named under assay in each row; also called PVRL4; PRR4
T4 sequence (looked up): T3 sequence (looked up)

T5: Nectin-4 IgV-like domain Fc fusion recombinant protein (Nec4-V) (human, UniProt Q96NY8 32-146, limits assumed)
T5 construct: domain: IgV-like domain; also called Nectin-4-V-Fc; not shown: Fc part
T5 sequence (looked up): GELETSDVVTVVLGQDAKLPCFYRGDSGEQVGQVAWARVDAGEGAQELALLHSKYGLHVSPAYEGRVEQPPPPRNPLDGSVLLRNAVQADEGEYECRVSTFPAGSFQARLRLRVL

B1: Ch-15A7.5 (chimeric anti-Nectin-4 monoclonal antibody 15A7.5) (antibody, V domains shown)
VH: EVKLVESGGGLVQPGGSRKLSCAASGFTFSNYGMAWVRQAPGKGPEWVAFISNLAYGINYADTVTGRFTISRENAKNTLYLEMRSLRSEDTAMYYCARGARATGWFAYWGQGTLVTVSA
VL: DIVMTQSQKFMSTSIGDRVSVTCKASQNVDTHVAWYQEKPGQSPKALIYSASYRYSGVPDRFTGSGSGTDFTLTISNVQSEDLADYFCQQYNSYPLTFGGGTKLEIK
notes: also called Ch-15A7.5 mAb; Ch-15A7 mAb
B2: Ch-5A12.2 (chimeric anti-Nectin-4 monoclonal antibody 5A12.2) (antibody, V domains shown)
VH: QIQLQQSGAELVKPGASVTLSCKTSGFTFNSMYISWLKQKPGQSLEWIAWIYAGTGGTRFNQKFTGKVQLTVDTSSSTAYMQFSSLTTDDSAIYYCAIRSGFVPMDYWGQGTSVTVSS
VL: SIVMTQTPKFLLVSAGDRVTITCKASQSVSNDVAWYQQKPGQSPKLLIYYASNRYTGVPDRFTGSGYGTDFTFTISTVQAEDLAVYFCQQDYSSPWTFGGGTKLEIK
notes: also called Ch-5A12.2 mAb; 5A12.2 mAb
B3: HA22 (Enfortumab), human monoclonal anti-Nectin-4 antibody (antibody, V domains shown)
VH: EVQLVESGGGLVQPGGSLRLSCAASGFTFSSYNMNWVRQAPGKGLEWVSYISSSSSTIYYADSVKGRFTISRDNAKNSLSLQMNSLRDEDTAVYYCARAYYYGMDVWGQGTTVTVSS
VL: DIQMTQSPSSVSASVGDRVTITCRASQGISGWLAWYQQKPGKAPKFLIYAASTLQSGVPSRFSGSGSGTDFTLTISSLQPEDFATYYCQQANSFPPTFGGGTKVEIK
notes: also called Enfortumab (HA22); HA22 mAb

Key:
[1] = target: T1, Nectin-4 extracellular domain Fc fusion …; test: ELISA, plate coated with Nec4-VCC Fc fusion, peroxidase-conjugated antibody
Experimental: (§1) Detection by ELISA. [0433]
(§2) One hundred μL of peroxidase substrate was added (One Step ABST, Pierce), and OD was red at 405 nm.

[2] = target: T2, Nectin-1 extracellular domain Fc fusion …; test: ELISA, plate coated with Nec1-VCC Fc fusion protein
Experimental: as §1, §2

[3] = target: T3, human Nectin-4 with N-terminal Flag …; test: flow cytometry on MDA-MB231 cells transfected with N-terminal Flag-tagged Nectin-4, anti-human Fc PE detection
Text: Detection by flow cytometry. [0431] […] Cells were then stained with phycoerythrin conjugate goat anti human Fc antibody. The normalized mean fluorescence intensity is shown. […] Mean fluorescence intensity is represented.

[4] = target: T4, human Nectin-4 on cells (CHO cells …); test: flow cytometry on normal differentiated human keratinocytes (NHEK), compared with SUM190 tumor cells
[5] = target: T5, Nectin-4 IgV-like domain Fc fusion …; test: ELISA, plate coated with Nec4-V Fc fusion, peroxidase-conjugated antibody
Experimental: as §1, §2

[6] = target: T4, human Nectin-4 on cells (CHO cells …); test: flow cytometry on normal differentiated human keratinocytes (NHEK); reference antibody of the comparison
[7] = target: T1, Nectin-4 extracellular domain Fc fusion …; test: statement in the legend of the competition ELISA on coated Nec4-VCC
Experimental: Competition assay was performed by ELISA. [0435] Ninety-six-wells plates were coated with 5 μg/mL of Nectin-4 extracellular domain Fc fusion recombinant protein (Nec4-VCC) overnight at 4° C.
as §2

Binder | binding result [1] | binding result [2] | binding result [3] | binding result [4] | binding result [5] | binding result [6] | binding result [7]
B1 | binds | no binding | binds | binds | binds | – | –
B2 | – | – | binds | – | – | binds | –
B3 | – | – | – | – | – | – | binds
